Series [1] deals with T1, Thrombin (UniProt P00734;P00734 P00734:328-363,P00734:364-622). Kind of series: EMSA; high affinity; among most efficient competitors (FIG. 16).
Series [2] concerns the target T1, Thrombin. Nature of the series: competition; does not compete with THR2 (binds the other exosite); poor competitor of beacon complex compared with bivalent constructs.
The target of series [3] is T1, Thrombin. Kind of series: competition; affinity relative to THR2.
For series [4], the target named is T1, Thrombin. Kind of series: fluorescence intensity titration; 50 mM Tris pH 7.5, 100 mM NaCl, 5 mM KCl, 1 mM MgCl2.
Series [5] addresses Single-stranded DNA binding protein (SSB) (Escherichia coli, UniProt P0AGE0 P0AGE0:2-178). Kind of series: FP; nanomolar concentrations, similar range as thrombin. To be noted: tags: Sigma; chain copies: 4; label: 5' fluorescein.
In series [6] the target is T1, Thrombin. Kind of series: FP; nanomolar range only.

Sequence of Single-stranded DNA binding protein (SSB) (P0AGE0 2-178, one chain of several): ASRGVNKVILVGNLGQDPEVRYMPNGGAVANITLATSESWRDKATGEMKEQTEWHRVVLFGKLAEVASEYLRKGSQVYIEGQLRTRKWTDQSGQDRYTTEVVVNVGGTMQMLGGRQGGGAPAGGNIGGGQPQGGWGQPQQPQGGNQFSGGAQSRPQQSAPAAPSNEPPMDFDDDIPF

B1: THR16/THR17 bivalent (structured_DNA)
DNA 1: GGTTGGTGTGGTTGGTTTTTTTTTTTTTTTTTCTGTCGTTAGTGAAGGTT
DNA 2: AACCTTCACTAACGACAGTTTTTTTTTTTTTTTTTAGTCCGTGGTAGGGCAGGTTGGGGTGACT
On to B1, for which the binding result in series [1] was “binds”.
As to AGTCCGTGGTAGGGCAGGTTGGGGTGACT (ssDNA) [THR3 (60-18 [29])], the binding result in series [2] is “binds”.
Molecule GGTTGGTGTGGTTGG (ssDNA) [THR4 (G15D)] showed a binding signal in series [3] of 1.7 fold.
The term Kd denotes the equilibrium constant for the complex coming apart. Read a low Kd as a tighter complex. The molecule GGTTGGTGTGGTTGG (ssDNA) [THR2 (G15D)] came in with a Kd in series [4] of 6.3 nM.
Turning to AGTCCGTGGTAGGGCAGGTTGGGGTGACT (ssDNA) [THR1 (60-18 [29])], the binding result in series [5] and in series [6] was “binds” throughout.

B2: THR18/THR19 bivalent (structured_DNA)
DNA 1: GGTTGGTGTGGTTGGTTTTTTTTTTTTTTTTTTTTTTTTTTTCTGTCGTTAGTGAAGGTT
DNA 2: AACCTTCACTAACGACAGTTTTTTTTTTTTTTTTTTTTTTTTTTTAGTCCGTGGTAGGGCAGGTTGGGGTGACT
Turning to B2, the binding result in series [1] was “binds”.

(Values after US20140248710, “THREE-COMPONENT BIOSENSORS FOR DETECTING MACROMOLECULES AND OTHER ANALYTES” (Mediomics LLC, published 2014).)
